Test results taken from publication PMC9430884.

Tests used:
[1] = target: Gal4BD-CckAΔTM (Rhodobacter sphaeroides)
[2] = target: CckA_(L391F) (two-hybrid fusion) (Rhodobacter sphaeroides); settings: scale: times higher concentration of Osp than for wild-type CckA

inhibition of CckA autophosphorylation with [γ-32P]ATP, purified proteins (2.5 μM His6-CckA cytoplasmic domain, Osp-His6 0 to 10 μM, 30 min) [1]: 50%
inhibition of CckA L391F autophosphorylation with [γ-32P]ATP, purified proteins (2.5 μM His6-CckA L391F cytoplasmic domain, Osp-His6 0 to 10 μM, 30 min), against wild-type CckA [2]: 4
Substance: Gal4AD-Osp (natural protein)
